Here are results for three molecules from patent publication US20190263932A1 (Eli Lilly, published 2019).

The target in experiment [1] is rat TrkA receptor expressed in transfected HEK293 cells (rat, UniProt P35739 33-799). The experiment can be described thus: cell-based or functional assay.
In experiment [2] the target is T1, Cynomolgus monkey TrkA Extracellular Domain (59-434) (cynomolgus monkey, UniProt P04629 35-414 (human entry)).
T1 construct: SPR analyte
T1 chain: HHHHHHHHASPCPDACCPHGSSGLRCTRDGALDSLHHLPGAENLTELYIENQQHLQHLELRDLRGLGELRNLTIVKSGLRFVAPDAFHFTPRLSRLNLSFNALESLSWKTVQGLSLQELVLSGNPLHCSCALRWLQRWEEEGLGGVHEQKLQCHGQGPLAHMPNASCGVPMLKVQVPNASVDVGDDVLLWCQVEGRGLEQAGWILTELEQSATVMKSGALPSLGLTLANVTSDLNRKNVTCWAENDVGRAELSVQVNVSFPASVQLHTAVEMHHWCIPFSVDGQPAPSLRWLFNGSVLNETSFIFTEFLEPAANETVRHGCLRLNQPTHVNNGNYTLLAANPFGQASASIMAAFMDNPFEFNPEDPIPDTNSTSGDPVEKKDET
As to the kind of experiment: SPR, mAb captured on Protein A chip, 37 C. As to the method: (§1) The binding kinetics and affinity of exemplified antibodies to human, cynomolgus monkey, rat, mouse, and rabbit TrkA are determined as described below using a surface plasmon resonance assay on a BIACORE™ 8K instrument (GE Healthcare). Two different isoforms of human TrkA (isoform 1 and isoform 2) are evaluated along with human TrkB and human TrkC. […] All FC2 on all eight channels are set to capture approximately 89 response units (RU) of antibody at a flow rate of 10 μL/min. The antibody sample is prepared at 1 μg/mL by dilution into the running buffer. […] Before the analysis cycle, the chip is regenerated with 3 injections of glycine (pH ˜1.5) at 100 μL/min for a contact time of 15 seconds on FC1 and FC2 in order to clean the surface of the chip.
Background: Surface plasmon resonance follows binding to a sensor surface in real time, without labels.

Experiment [3] addresses T2, Rabbit TrkA Extracellular Domain (33-414) (rabbit).
T2 construct: SPR analyte; not shown: C-terminal polyhistidine tag (unknown length)
T2 chain: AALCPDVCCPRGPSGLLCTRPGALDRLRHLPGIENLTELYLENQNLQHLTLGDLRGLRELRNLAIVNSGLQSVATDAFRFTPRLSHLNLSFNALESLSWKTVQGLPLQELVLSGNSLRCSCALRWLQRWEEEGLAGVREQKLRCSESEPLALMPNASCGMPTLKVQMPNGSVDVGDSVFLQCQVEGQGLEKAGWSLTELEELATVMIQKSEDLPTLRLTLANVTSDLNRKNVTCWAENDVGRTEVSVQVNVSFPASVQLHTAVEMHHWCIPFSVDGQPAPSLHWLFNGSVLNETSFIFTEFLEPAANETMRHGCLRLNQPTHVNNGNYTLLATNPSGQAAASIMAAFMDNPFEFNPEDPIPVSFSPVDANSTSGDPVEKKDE
The experiment can be described thus: SPR, mAb captured on Protein A chip, 37 C. As to the method:
as §1

For experiment [4], the target named is T3, recombinant human TrkA protein (human, UniProt P04629-2 34-407, limits assumed). As to the kind of experiment: NGF-blocking ELISA on coated human TrkA, 100 nM btNGF; mAb 10 nM. As to the method:
(§2) Each row of a 96-well high-binding clear-bottom microtiter plate (Microlon, #655061) was coated overnight at 4° C. with 100 μL/well of recombinant human TrkA protein, diluted to 2 μg/mL in phosphate buffered saline, pH 7.2 (PBS). The next day, the coating solution was removed, and the plate was blocked with 150 μL of Casein-PBS (Thermo Scientific, #37528) for 1 hour at 25° C. with gentle shaking. The plate was then washed three times with PBS supplemented with 0.05% Tween20 (PBST). A two-fold dilution series of exemplified antibodies, along with IgG4 and IgG1 isotype control antibodies, was generated starting at 20 nM in Casein-PBS. 100 μL of the each dilution series sample was added to a well for 30 min at 37° C. with gentle shaking. The plate was then washed three times with PBST. […] The plate was then washed three times with PBST. A 1:3500 dilution of a 1 mg/mL stock solution of streptavidin-HRP (Thermo Scientific, #21130) in Casein-PBS was prepared and […] was added to each well for 20 min at 37° C. with gentle shaking. The plate was washed three times with PBST. […] The reaction was stopped by addition of 100 μL of 1M H₃PO₄ to each well. The absorbance at 450 nm (Abs450) was measured using a SpectraMax 340PC plate reader (Molecular Devices).

In experiment [5] the target is T3, recombinant human TrkA protein. As to the kind of experiment: NGF-blocking ELISA on coated human TrkA, 100 nM btNGF; mAb 2.5 nM. As to the method: as §2
In general terms: An ELISA detects its analyte on a solid surface through an enzyme-linked reagent.

Experiment [6] concerns the target T4, Human TrkA Extracellular Domain Isoform 2 (33-408) (human, UniProt P04629 33-414).
T4 construct: SPR analyte; also called Human TrkA Isoform 2
As to the kind of experiment: SPR, mAb captured on Protein A chip, 37 C. Here is the method: Antibodies are captured onto a Series-S Sensor Protein A CM5 chip (GE Healthcare). For each channel, Flow Cell 1 (FC1) is designated as a buffer reference and Flow Cell 2 (FC2) is designated for antibody capture. All FC2 on all eight channels are set to capture approximately 89 response units (RU) of antibody at a flow rate of 10 μL/min. All antibody samples are prepared at 5 μg/mL by dilution into the running buffer. […] Before the analysis cycle, the chip is regenerated with 3 injections of glycine (pH ˜1.5) at 100 μL/min for a contact time of 15 seconds on FC1 and FC2 in order to clean the surface of the chip. […] This is repeated for each antibody evaluated. Data is processed using predefined antibody parallel kinetics with reference subtraction and fit to a 1:1 binding model using BIACORE™ 8K evaluation software (version 1.1.1.7442) to determine the association rate (on-rate, kon, M⁻¹s⁻¹ units) and the dissociation rate (off-rate, koff, s⁻¹ units). The equilibrium dissociation constant (KD) is calculated from the relationship KD=koff/kₒₙ, in molar units. The average (Avg) KD and error, reported as the standard deviation (SD), is determined from three independent experiments.

Numbering of substitutions follows the chain as printed.

T3 sequence (P04629 other isoform, or with tags, fused parts or gaps limits assumed): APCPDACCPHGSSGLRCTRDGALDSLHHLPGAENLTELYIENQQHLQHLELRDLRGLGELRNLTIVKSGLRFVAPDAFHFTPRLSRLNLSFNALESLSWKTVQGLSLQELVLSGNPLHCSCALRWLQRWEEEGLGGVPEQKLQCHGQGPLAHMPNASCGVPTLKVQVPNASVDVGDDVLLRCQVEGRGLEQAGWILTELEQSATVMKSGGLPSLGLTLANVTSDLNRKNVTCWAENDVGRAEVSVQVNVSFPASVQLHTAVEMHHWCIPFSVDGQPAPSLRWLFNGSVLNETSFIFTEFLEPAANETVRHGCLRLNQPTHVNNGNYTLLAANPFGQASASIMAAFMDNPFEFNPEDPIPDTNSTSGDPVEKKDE
T4 sequence (P04629 other isoform, or with tags, fused parts or gaps): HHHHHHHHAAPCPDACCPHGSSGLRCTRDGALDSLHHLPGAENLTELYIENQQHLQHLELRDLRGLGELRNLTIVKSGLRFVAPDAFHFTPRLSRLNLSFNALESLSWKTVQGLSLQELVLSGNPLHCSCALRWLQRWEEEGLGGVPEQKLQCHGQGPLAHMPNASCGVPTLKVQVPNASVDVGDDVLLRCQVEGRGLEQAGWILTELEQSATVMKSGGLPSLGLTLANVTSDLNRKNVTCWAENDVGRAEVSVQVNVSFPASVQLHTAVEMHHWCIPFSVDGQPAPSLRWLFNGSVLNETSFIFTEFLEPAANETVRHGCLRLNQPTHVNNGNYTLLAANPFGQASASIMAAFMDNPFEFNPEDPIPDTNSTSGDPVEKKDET
Sequence of rat TrkA receptor expressed in transfected HEK293 cells (P35739 33-799): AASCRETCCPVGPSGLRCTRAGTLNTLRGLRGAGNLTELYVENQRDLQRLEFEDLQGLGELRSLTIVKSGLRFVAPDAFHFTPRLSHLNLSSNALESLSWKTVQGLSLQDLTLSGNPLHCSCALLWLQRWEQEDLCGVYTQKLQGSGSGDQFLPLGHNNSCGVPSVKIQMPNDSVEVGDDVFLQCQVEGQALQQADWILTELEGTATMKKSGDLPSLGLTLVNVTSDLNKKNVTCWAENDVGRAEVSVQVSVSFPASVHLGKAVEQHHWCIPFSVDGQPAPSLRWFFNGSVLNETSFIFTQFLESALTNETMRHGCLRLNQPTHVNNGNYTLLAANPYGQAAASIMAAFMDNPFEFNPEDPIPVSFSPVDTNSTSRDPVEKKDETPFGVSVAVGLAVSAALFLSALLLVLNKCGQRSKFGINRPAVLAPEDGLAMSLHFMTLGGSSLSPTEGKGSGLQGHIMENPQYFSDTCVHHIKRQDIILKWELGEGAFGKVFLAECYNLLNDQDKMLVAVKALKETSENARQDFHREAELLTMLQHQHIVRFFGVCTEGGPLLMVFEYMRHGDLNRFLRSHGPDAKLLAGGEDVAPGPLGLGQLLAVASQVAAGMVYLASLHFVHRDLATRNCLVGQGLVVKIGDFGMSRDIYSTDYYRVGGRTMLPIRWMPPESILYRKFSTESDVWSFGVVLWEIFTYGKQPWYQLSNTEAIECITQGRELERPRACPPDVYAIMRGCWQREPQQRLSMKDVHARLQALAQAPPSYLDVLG

B1: mAb A (antibody, human IgG4 S228P, kappa, F234A L235A, V domains shown)
VH: EVQLVESGGGLVKPGGSLRLSCAASGFTFSGVSINWVRQAPGKGLEWVSSETTSSGTIYYADSVKGRFTISRDNAKNSLYLQMNSLRAEDTAVYYCARSYYYGMDVWGQGTTVTVSS
VL: DIVMTQTPLSSPVTLGQPASISCRSSQSLVHRNGNTYLSWLQQRPGQPPRLLIYKISNRFSGVPDRFSGSGAGTDFTLKISRVEAEDVGVYYCMQARQFPLTFGGGTKVEIKR
notes: Human IgG4PAA/Kappa
With B1, in experiment [1], the “% Max stimulation, pTrkA” value was determined as 18%; the “EC50 (nM), pTrkA” value came out at 0.88 nM; the “pTrkA counts per second, 0.1 pM mAb, no NGF” value is 171000 counts per second; the “pTrkA counts per second, 1 pM mAb, no NGF” value came to 174000 counts per second. In experiment [1], the “pTrkA counts per second, 10 pM mAb, no NGF” value is 227000 counts per second; the “pTrkA counts per second, 100 pM mAb, no NGF” value was 203000 counts per second; the “pTrkA counts per second, 1 nM mAb, no NGF” value amounted to 442000 counts per second; the “pTrkA counts per second, 10 nM mAb, no NGF” value worked out at 640000 counts per second. In addition, in experiment [1], the “pTrkA counts per second, 100 nM mAb, no NGF” value was found to be 572000 counts per second and the “pTrkA counts per second, 1 uM mAb, no NGF” value was 493000 counts per second. In experiment [2], the Kd came to 3.6 nM, the koff was 0.00069 s⁻¹ and the kon turned out to be 190000 M⁻¹ s⁻¹. In experiment [3], the Kd came to 2.9 nM, the koff was 0.00061 s⁻¹ and the kon stood at 210000 M⁻¹ s⁻¹. Also, the “Absorbance 450 nm” value in experiment [4] came out at 0.2. For the same molecule, the “Absorbance 450 nm” value in experiment [5] worked out at 0.21.

B2: mAb B (antibody, human IgG4 S228P, kappa, F234A L235A)
heavy: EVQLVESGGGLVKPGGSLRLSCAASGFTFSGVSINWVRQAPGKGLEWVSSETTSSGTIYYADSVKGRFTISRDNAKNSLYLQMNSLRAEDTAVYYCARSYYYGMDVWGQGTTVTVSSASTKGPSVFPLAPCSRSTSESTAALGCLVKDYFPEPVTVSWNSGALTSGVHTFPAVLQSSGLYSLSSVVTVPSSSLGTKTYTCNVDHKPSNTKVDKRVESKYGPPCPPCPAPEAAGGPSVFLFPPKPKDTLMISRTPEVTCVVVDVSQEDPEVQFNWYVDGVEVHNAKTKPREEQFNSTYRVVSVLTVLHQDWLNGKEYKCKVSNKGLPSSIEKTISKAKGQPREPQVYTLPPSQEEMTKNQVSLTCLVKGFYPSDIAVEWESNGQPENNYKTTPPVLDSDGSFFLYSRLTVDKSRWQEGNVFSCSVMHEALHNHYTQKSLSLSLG
light: DIVMTQTPLSSPVTLGQPASISCRSSQSLVHRAGNTYLSWLQQRPGQPPRLLIYKISNRFSGVPDRFSGSGAGTDFTLKISRVEAEDVGVYYCMQARQFPLTFGGGTKVEIKRTVAAPSVFIFPPSDEQLKSGTASVVCLLNNFYPREAKVQWKVDNALQSGNSQESVTEQDSKDSTYSLSSTLTLSKADYEKHKVYACEVTHQGLSSPVTKSFNRGEC
notes: Human IgG4PAA/Kappa
On to B2, for which, in experiment [1], the “% Max stimulation, pTrkA” value is 38%; the “EC50 (nM), pTrkA” value came out at 0.98 nM; the “pTrkA counts per second, 0.1 pM mAb, no NGF” value came out at 748000 counts per second; the “pTrkA counts per second, 1 pM mAb, no NGF” value worked out at 844000 counts per second. In experiment [1], the “pTrkA counts per second, 10 pM mAb, no NGF” value came to 638000 counts per second; the “pTrkA counts per second, 100 pM mAb, no NGF” value is 758000 counts per second; the “pTrkA counts per second, 1 nM mAb, no NGF” value stood at 1.4e+06 counts per second; the “pTrkA counts per second, 10 nM mAb, no NGF” value is 2.1e+06 counts per second. Besides, in experiment [1], the “pTrkA counts per second, 100 nM mAb, no NGF” value was 2.08e+06 counts per second and the “pTrkA counts per second, 1 uM mAb, no NGF” value came to 1.86e+06 counts per second. In addition, in experiment [2], the Kd came out at 6.9 nM, the dissociation rate constant (koff) stood at 0.0013 s⁻¹ and the on-rate constant (kon) is 190000 M⁻¹ s⁻¹. Also, in experiment [3], the equilibrium dissociation constant (Kd) is 5 nM, the koff is 0.0011 s⁻¹ and the on-rate (kon) is 220000 M⁻¹ s⁻¹. In experiment [6], this molecule showed a Kd of 7.7 nM, a koff of 0.0012 s⁻¹ and an on-rate (kon) of 160000 M⁻¹ s⁻¹. The “Absorbance 450 nm” value in experiment [4] is 0.14. Moreover, the “Absorbance 450 nm” value in experiment [5] is 0.16.

B3: mAb C (antibody, human IgG4 S228P, kappa, F234A L235A)
heavy: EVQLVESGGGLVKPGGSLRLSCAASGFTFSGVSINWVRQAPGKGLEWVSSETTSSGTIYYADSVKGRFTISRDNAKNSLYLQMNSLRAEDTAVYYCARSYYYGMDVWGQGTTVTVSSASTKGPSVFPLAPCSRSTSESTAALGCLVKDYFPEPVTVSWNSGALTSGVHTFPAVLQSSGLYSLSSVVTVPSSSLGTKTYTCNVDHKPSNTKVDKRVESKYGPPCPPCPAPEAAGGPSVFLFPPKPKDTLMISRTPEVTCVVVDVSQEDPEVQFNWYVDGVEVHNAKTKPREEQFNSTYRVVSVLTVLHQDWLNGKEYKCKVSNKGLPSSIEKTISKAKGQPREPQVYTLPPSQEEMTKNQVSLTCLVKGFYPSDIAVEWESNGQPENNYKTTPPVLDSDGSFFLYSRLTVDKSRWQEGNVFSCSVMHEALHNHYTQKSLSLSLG
light: B2 light with A33Q
notes: Human IgG4PAA/Kappa
As for B3, in experiment [1], the “% Max stimulation, pTrkA” value was determined as 50%; the “EC50 (nM), pTrkA” value came to 0.21 nM; the “pTrkA counts per second, 0.1 pM mAb, no NGF” value amounted to 571000 counts per second; the “pTrkA counts per second, 1 pM mAb, no NGF” value was 613000 counts per second. Moreover, in experiment [1], the “pTrkA counts per second, 10 pM mAb, no NGF” value turned out to be 664000 counts per second; the “pTrkA counts per second, 100 pM mAb, no NGF” value stood at 922000 counts per second; the “pTrkA counts per second, 1 nM mAb, no NGF” value is 1.54e+06 counts per second; the “pTrkA counts per second, 10 nM mAb, no NGF” value was 1.69e+06 counts per second. In addition, in experiment [1], the “pTrkA counts per second, 100 nM mAb, no NGF” value worked out at 1.77e+06 counts per second and the “pTrkA counts per second, 1 uM mAb, no NGF” value was 1.63e+06 counts per second. In addition, in experiment [2], the affinity, expressed as Kd, was 6.6 nM; the koff stood at 0.0013 s⁻¹; the kon turned out to be 200000 M⁻¹ s⁻¹. In experiment [3], this molecule gave a Kd of 4.7 nM, an off-rate constant (koff) of 0.0011 s⁻¹ and a kon of 220000 M⁻¹ s⁻¹. In addition, the “Absorbance 450 nm” value in experiment [4] was 0.15. The “Absorbance 450 nm” value in experiment [5] is 0.15.

As a reminder, the Kd is the free concentration of one partner at which half of the binding sites on the other are occupied at equilibrium, for simple one-to-one binding. The term koff denotes the first-order rate constant of dissociation. The term kon denotes the rate constant with which the complex forms.
